Consider two molecules from publication PMC4847171, “Structural model of FeoB, the iron transporter from Pseudomonas aeruginosa, predicts a cysteine lined, GTP-gated pore” (Bioscience Reports, 2016).

Where “and” joins values, the source holds several entries; their conditions need not be identical. Identical values can stand only once.

In data set [1] the target is FeoB from Pseudomonas aeruginosa, histidine-tagged (Pseudomonas aeruginosa). Briefly: native gel or EMSA; blue-native PAGE (NativePAGE Novex Bis-Tris 4%-12% gel, Coomassie blue G-250, 140 V for 2 h); purified FeoB solubilised with the polymer NV10.
Data set [2] shares this target. Nature of the data set: AFM; AFM imaging in air of isolated FeoB diluted 10000-20000 times in 10 mM K-HEPES pH 7.0, 200 mM NaCl, 10 mM MgSO4, 0.05% C12E8, adsorbed on mica and dried; oligomeric state from molecular volumes.
Data set [3] deals with the molecule itself. Briefly: native gel or EMSA; blue-native PAGE, same gel as FeoB; comparison proteins MexB and BSA.

One may read the stoichiometry N as the number of molecules, sites or subunits per partner or assembly. As to “FeoB from Pseudomonas aeruginosa, histidine-tagged (natural protein)”, the stoichiometry N is 3 and 6 in data set [1]; 3 and 6 in data set [2].

B1: MexB, drug efflux transporter from Pseudomonas aeruginosa (natural protein)
chain: MSKFFIDRPIFAWVIALVIMLAGGLSILSLPVNQYPAIAPPAIAVQVSYPGASAETVQDTVVQVIEQQMNGIDNLRYISSESNSDGSMTITVTFEQGTDPDIAQVQVQNKLQLATPLLPQEVQRQGIRVTKAVKNFLMVVGVVSTDGSMTKEDLSNYIVSNIQDPLSRTKGVGDFQVFGSQYSMRIWLDPAKLNSYQLTPGDVSSAIQAQNVQISSGQLGGLPAVKGQQLNATIIGKTRLQTAEQFENILLKVNPDGSQVRLKDVADVGLGGQDYSINAQFNGSPASGIAIKLATGANALDTAKAIRQTIANLEPFMPQGMKVVYPYDTTPVVSASIHEVVKTLGEAILLVFLVMYLFLQNFRATLIPTIAVPVVLLGTFGVLAAFGFSINTLTMFGMVLAIGLLVDDAIVVVENVERVMAEEGLSPREAARKSMGQIQGALVGIAMVLSAVFLPMAFFGGSTGVIYRQFSITIVSAMALSVIVALILTPALCATMLKPIEKGDHGEHKGGFFGWFNRMFLSTTHGYERGVASILKHRAPYLLIYVVIVAGMIWMFTRIPTAFLPDEDQGVLFAQVQTPPGSSAERTQVVVDSMREYLLEKESSSVSSVFTVTGFNFAGRGQSSGMAFIMLKPWEERPGGENSVFELAKRAQMHFFSFKDAMVFAFAPPSVLELGNATGFDLFLQDQAGVGHEVLLQARNKFLMLAAQNPALQRVRPNGMSDEPQYKLEIDDEKASALGVSLADINSTVSIAWGSSYVNDFIDRGRVKRVYLQGRPDARMNPDDLSKWYVRNDKGEMVPFNAFATGKWEYGSPKLERYNGVPAMEILGEPAPGLSSGDAMAAVEEIVKQLPKGVGYSWTGLSYEERLSGSQAPALYALSLLVVFLCLAALYESWSIPFSVMLVVPLGVIGALLATSMRGLSNDVFFQVGLLTTIGLSAKNAILIVEFAKELHEQGKGIVEAAIEACRMRLRPIVMTSLAFILGVVPLAISTGAGSGSQHAIGTGVIGGMVTATVLAIFWVPLFYVAVSTLFKDEASKQQASVEKGQ
For the molecule B1, in data set [3], the “stoichiometry N” value is 2 and 3.
